This note sets out measurements from PMC10574006, “Two Different Isocitrate Dehydrogenases from Pseudomonas aeruginosa: Enzymology and Coenzyme-Evolutionary Implications” (International Journal of Molecular Sciences, 2023).

In series [1] the target is T1, PaIDH1 (Pseudomonas aeruginosa, UniProt Q9I0L5).
T1 construct: gene icd; full length, 418 aa, 6xHis-tag, pET-28b(+) NdeI/XhoI, E. coli Rosetta (DE3), 45 kDa subunit, homodimer
T1 sequence (Q9I0L5 1-418): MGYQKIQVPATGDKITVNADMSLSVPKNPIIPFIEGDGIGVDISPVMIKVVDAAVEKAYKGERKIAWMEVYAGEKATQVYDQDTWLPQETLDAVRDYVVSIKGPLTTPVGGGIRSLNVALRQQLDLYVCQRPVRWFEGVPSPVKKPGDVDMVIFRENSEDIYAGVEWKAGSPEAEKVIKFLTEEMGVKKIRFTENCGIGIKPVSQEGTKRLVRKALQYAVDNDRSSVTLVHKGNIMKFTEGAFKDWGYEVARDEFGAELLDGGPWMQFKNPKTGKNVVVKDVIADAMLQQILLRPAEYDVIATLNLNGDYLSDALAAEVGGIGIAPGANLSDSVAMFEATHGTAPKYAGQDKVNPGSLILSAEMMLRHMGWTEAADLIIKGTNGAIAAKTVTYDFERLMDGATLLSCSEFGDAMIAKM
As to the kind of experiment: effect on IDH activity, product formation. To be noted: read-out: Relative Activity (%) / PaIDH1. It is filed as biochemical. The text has this: effect on IDH activity, product formation on PaIDH1

Series [2] deals with T2, PaIDH2 (Pseudomonas aeruginosa, UniProt Q9I0L4).
T2 construct: gene idh; full length, 741 aa, 6xHis-tag, pET-28b(+) NdeI/XhoI, E. coli Rosetta (DE3), 81 kDa subunit, oligomer depends on salt (176-320 kDa)
T2 sequence (Q9I0L4 1-741): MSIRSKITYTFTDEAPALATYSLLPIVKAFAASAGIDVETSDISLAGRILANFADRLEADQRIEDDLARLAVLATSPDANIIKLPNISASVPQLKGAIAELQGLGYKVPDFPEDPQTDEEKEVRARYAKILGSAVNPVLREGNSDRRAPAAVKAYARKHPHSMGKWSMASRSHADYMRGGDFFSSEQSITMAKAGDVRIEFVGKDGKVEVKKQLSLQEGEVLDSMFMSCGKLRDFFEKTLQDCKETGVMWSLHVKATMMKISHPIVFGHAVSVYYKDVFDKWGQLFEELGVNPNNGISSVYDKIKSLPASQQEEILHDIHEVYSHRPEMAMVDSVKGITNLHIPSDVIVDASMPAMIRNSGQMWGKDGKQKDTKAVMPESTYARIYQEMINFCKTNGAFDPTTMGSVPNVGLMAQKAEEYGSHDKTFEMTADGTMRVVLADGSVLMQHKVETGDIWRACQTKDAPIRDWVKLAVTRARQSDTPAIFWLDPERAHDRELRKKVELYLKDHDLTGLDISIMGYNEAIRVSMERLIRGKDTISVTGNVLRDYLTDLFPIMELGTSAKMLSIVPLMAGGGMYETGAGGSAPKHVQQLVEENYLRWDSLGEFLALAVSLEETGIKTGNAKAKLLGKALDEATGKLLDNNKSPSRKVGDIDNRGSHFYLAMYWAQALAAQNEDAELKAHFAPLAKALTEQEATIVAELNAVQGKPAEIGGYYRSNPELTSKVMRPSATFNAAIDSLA
Nature of the series: effect on IDH activity, product formation. Type of series: biochemical. To be noted: read-out: Relative Activity (%) / PaIDH2. From the text:
effect on IDH activity, product formation on PaIDH2

Substrate in series [3]: O=C(O)CC(C(=O)O)C(O)C(=O)O
Nature of the series: purified protein. As to conditions: 500 μM NADP+, 2 mM MnCl2, 50 mM Tris-HCl pH 7.5, 25 °C. It is filed as biochemical, Pseudomonas aeruginosa.

Substrate in series [4]: NC(=O)c1ccc[n+]([C@@H]2O[C@H](COP(=O)(O)OP(=O)(O)OC[C@H]3O[C@@H](n4cnc5c(N)ncnc54)[C@H](OP(=O)(O)O)[C@@H]3O)[C@@H](O)[C@H]2O)c1
As to the kind of experiment: purified protein. To be noted: 1 mM DL-isocitrate, 2 mM MnCl2, 50 mM Tris-HCl pH 7.5, 25 °C, varied: cofactor. Type of series: biochemical, Pseudomonas aeruginosa.

On to `O=C(O)CC(=O)C(=O)O` [OAA], for which the activity at 2000 µM in series [1] was found to be 77.5 ± 4.56%.
Turning to `Nc1ncnc2c1ncn2[C@@H]1O[C@H](COP(=O)(O)OP(=O)(O)OP(=O)(O)O)[C@@H](O)[C@H]1O` [ATP], in series [2], the activity at 2000 µM stood at 75.9 ± 5.92%.
As for `Nc1ncnc2c1ncn2[C@@H]1O[C@H](COP(=O)(O)OP(=O)(O)O)[C@@H](O)[C@H]1O` [ADP], the activity at 2000 µM was 81.8 ± 3.55% in series [1] and 82.7 ± 3.37% in series [2].
For `O=C(O)CCC(=O)C(=O)O` [α-KG], in that order: 79.5 ± 4.64% and 82.8 ± 5.65%.

B1: PaIDH1 (Pseudomonas aeruginosa PAO1) (protein)
chain: MGYQKIQVPATGDKITVNADMSLSVPKNPIIPFIEGDGIGVDISPVMIKVVDAAVEKAYKGERKIAWMEVYAGEKATQVYDQDTWLPQETLDAVRDYVVSIKGPLTTPVGGGIRSLNVALRQQLDLYVCQRPVRWFEGVPSPVKKPGDVDMVIFRENSEDIYAGVEWKAGSPEAEKVIKFLTEEMGVKKIRFTENCGIGIKPVSQEGTKRLVRKALQYAVDNDRSSVTLVHKGNIMKFTEGAFKDWGYEVARDEFGAELLDGGPWMQFKNPKTGKNVVVKDVIADAMLQQILLRPAEYDVIATLNLNGDYLSDALAAEVGGIGIAPGANLSDSVAMFEATHGTAPKYAGQDKVNPGSLILSAEMMLRHMGWTEAADLIIKGTNGAIAAKTVTYDFERLMDGATLLSCSEFGDAMIAKM
notes: full length, 418 aa, 6xHis-tag, pET-28b(+) NdeI/XhoI, E. coli Rosetta (DE3), 45 kDa subunit, homodimer
For orientation: Km means the concentration of substrate that gives half-maximal velocity. For orientation: kcat means the number of substrate molecules converted per active site and unit of time at saturation. As a reminder, the kcat/Km is the second-order rate constant that governs catalysis at low substrate concentration. In the case of B1, in series [3], the Km stood at 14.41 ± 1.82 µM, the kcat came out at 29.3 ± 10.9 s⁻¹ and the kcat/Km worked out at 2.1e+06 ± 930000 M⁻¹ s⁻¹. For the same molecule, in series [4], the Km turned out to be 20.00 ± 6.29 µM, the kcat turned out to be 105 ± 19.9 s⁻¹ and the kcat/Km came to 5.42e+06 ± 970000 M⁻¹ s⁻¹.

B2: PaIDH2 (Pseudomonas aeruginosa PAO1) (protein)
chain: MSIRSKITYTFTDEAPALATYSLLPIVKAFAASAGIDVETSDISLAGRILANFADRLEADQRIEDDLARLAVLATSPDANIIKLPNISASVPQLKGAIAELQGLGYKVPDFPEDPQTDEEKEVRARYAKILGSAVNPVLREGNSDRRAPAAVKAYARKHPHSMGKWSMASRSHADYMRGGDFFSSEQSITMAKAGDVRIEFVGKDGKVEVKKQLSLQEGEVLDSMFMSCGKLRDFFEKTLQDCKETGVMWSLHVKATMMKISHPIVFGHAVSVYYKDVFDKWGQLFEELGVNPNNGISSVYDKIKSLPASQQEEILHDIHEVYSHRPEMAMVDSVKGITNLHIPSDVIVDASMPAMIRNSGQMWGKDGKQKDTKAVMPESTYARIYQEMINFCKTNGAFDPTTMGSVPNVGLMAQKAEEYGSHDKTFEMTADGTMRVVLADGSVLMQHKVETGDIWRACQTKDAPIRDWVKLAVTRARQSDTPAIFWLDPERAHDRELRKKVELYLKDHDLTGLDISIMGYNEAIRVSMERLIRGKDTISVTGNVLRDYLTDLFPIMELGTSAKMLSIVPLMAGGGMYETGAGGSAPKHVQQLVEENYLRWDSLGEFLALAVSLEETGIKTGNAKAKLLGKALDEATGKLLDNNKSPSRKVGDIDNRGSHFYLAMYWAQALAAQNEDAELKAHFAPLAKALTEQEATIVAELNAVQGKPAEIGGYYRSNPELTSKVMRPSATFNAAIDSLA
notes: full length, 741 aa, 6xHis-tag, pET-28b(+) NdeI/XhoI, E. coli Rosetta (DE3), 81 kDa subunit, oligomer depends on salt (176-320 kDa)
With B2, in series [3], the Km turned out to be 23.61 ± 1.21 µM, the kcat amounted to 171 ± 6.77 s⁻¹ and the kcat/Km worked out at 7.26e+06 ± 130000 M⁻¹ s⁻¹. Besides, in series [4], the Km worked out at 30.68 ± 2.73 µM, the kcat is 134 ± 17 s⁻¹ and the kcat/Km worked out at 4.42e+06 ± 1.13e+06 M⁻¹ s⁻¹.
